Paper PMC11251518, “A novel reporter for helicase activity in translation uncovers DDX3X interactions” (RNA, 2024)

Biological target: T1, Saccharomyces cerevisiae eIF4E (S. cerevisiae, UniProt P07260 1-213, ^15N labeled)
T1 construct: eIF4E of Saccharomyces cerevisiae; source: E. coli BL21-star, purified (nickel resin, TEV cleavage, m^7G cap resin)
T1 sequence (looked up): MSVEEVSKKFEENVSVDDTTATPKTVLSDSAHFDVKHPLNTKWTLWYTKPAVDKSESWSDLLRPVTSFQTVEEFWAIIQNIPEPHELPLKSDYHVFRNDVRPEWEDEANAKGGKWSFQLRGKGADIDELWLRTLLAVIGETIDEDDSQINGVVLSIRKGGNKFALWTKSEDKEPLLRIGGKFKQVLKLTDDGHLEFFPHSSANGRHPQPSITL
Assay: NMR titration; ^15N HSQC of 200 μM ^15N S. cerevisiae eIF4E with 250 μM m^7GTP; peptide added to 1 mM; 50 mM phosphate pH 6.5, 50 mM KCl, 298 K, 900 MHz
Settings: both partners purified

- binding result: binds
B1: 4E-BP1 peptide (amino acids 51–67) (peptide)
peptide: RIIYDRKFLMECRNSPV
notes: human 4E-BP1, amino acids 51–67; also called human 4E-BP1 amino acids 51–67; source: synthetic peptide (Elim Bio)
